The values that follow come from paper PMC10487585, “Refolding Increases the Chaperone-like Activity of αH-Crystallin and Reduces Its Hydrodynamic Diameter to That of α-Crystallin” (International Journal of Molecular Sciences, 2023).

Series [1] addresses UV-damaged βL-crystallin (bovine (endogenous in steer lens)).
Series [2] concerns the molecule itself. As to the kind of experiment: dynamic light scattering; ZetaSizer S nano; protein 1 mg/mL in PBS (40 mM sodium phosphate, pH 7.0, 100 mM NaCl, 1 mM EDTA, 3 mM NaN3); native protein without urea, or after renaturation from urea.
The target of series [3] is T1, αB-crystallin (bovine (endogenous in steer lens), UniProt P02510 1-175).
T1 construct: αB-crystallin (19.8 kDa), identified by mass on SDS-PAGE; source: purified from lenses of 6-month-old steers as a part of α-crystallin and HMWA
T1 sequence (looked up): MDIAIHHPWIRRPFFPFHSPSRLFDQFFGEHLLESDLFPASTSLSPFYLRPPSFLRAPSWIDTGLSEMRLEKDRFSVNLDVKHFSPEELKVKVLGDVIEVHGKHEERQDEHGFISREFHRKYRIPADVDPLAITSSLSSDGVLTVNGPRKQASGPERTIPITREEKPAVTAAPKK
The series can be described thus: SEC; Sephacryl S300HR, 2.5 × 90 cm, 1.6 mL/min, calibrated with standard proteins; polypeptides of the preparations and fractions by SDS-PAGE. Conditions: both partners purified. (In general: Size exclusion chromatography separates by hydrodynamic size, large species first.)

As for “refolded HMWA (from UniProt P02470 1-173; P02510 1-175) (complex)”, in series [1], the abscissa point of intersection (reciprocal of AC0) of the relative aggregation rate of UV-damaged βL-crystallin against the chaperone/target protein ratio; points with accelerated aggregation left out (mol/mol (chaperone/target protein)) came to 0.38. In the case of “αH-crystallin, high molecular weight aggregate (native) (from UniProt P02470 1-173; P02510 1-175) (complex)”, in series [1], the abscissa point of intersection (reciprocal of AC0) of the relative aggregation rate of UV-damaged βL-crystallin against the chaperone/target protein ratio (mol/mol (chaperone/target protein)) came out at 0.46 and the initial adsorption capacity AC0 from the aggregation kinetics of UV-damaged βL-crystallin (37 °C, 360 nm): target protein/chaperone mol/mol ratio, counted on monomers (mol/mol (target protein/chaperone)) came to 2.

B1: α-crystallin (native, from the lens cortex) (complex, bovine (endogenous in steer lens))
chain 1: MDIAIQHPWFKRTLGPFYPSRLFDQFFGEGLFEYDLLPFLSSTISPYYRQSLFRTVLDSGISEVRSDRDKFVIFLDVKHFSPEDLTVKVQEDFVEIHGKHNERQDDHGYISREFHRRYRLPSNVDQSALSCSLSADGMLTFSGPKIPSGVDAGHSERAIPVSREEKPSSAPSS
chain 2: T1 sequence (looked up)
notes: αA-crystallin, from steer lens; identified by mass on SDS-PAGE (20 kDa); αB-crystallin, from steer lens; identified by mass on SDS-PAGE (19.8 kDa); Polydisperse oligomer; by SDS-PAGE αA-crystallin 30%, αB-crystallin 60%, truncated α-crystallin 10% (a mixture of αA and αB fragments); also called authentic α-crystallin; native α-crystallin; source: purified from lenses of 6-month-old steers (gel …)
For the molecule B1, the binding result in series [2] was “binds”.

B2: αA-crystallin (natural protein, bovine (endogenous in steer lens), UniProt P02470 1-173, looked up)
chain: B1 chain 1
notes: αA-crystallin (20 kDa), identified by mass on SDS-PAGE; source: purified from lenses of 6-month-old steers as a part of α-crystallin and HMWA
As to B2, in series [3], the binding result is “binds”.

B3: renatured α-crystallin (complex, bovine (endogenous in steer lens))
chain 1: B1 chain 1
chain 2: T1 sequence (looked up)
notes: αA-crystallin, from steer lens; as in m1; αB-crystallin, from steer lens; Same polypeptides as m1, reassembled from monomers after urea
With B3, the binding result in series [2] was “binds”.
